From the supplement of paper PMC10567573

B1: RPAIN (parent)
chain: ISEYEKSLQFDEKCLSIMLAEWEA

Variants of: B1
Assay: protein stability index of a GFP-peptide fusion (GPS, HEK-293T) (PSI 1-6); higher = more stable
Details: c terminus: a fixed tail appended
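Also: lentivirally expressed fusions sorted by FACS into six bins by GFP to DsRed ratio, PSI derived from sequencing read proportions per bin multiplied by bin number.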

Variant | protein stability index
L15Q | 3.73
L15M | 2.2
L15F | 2.21
L15Y | 3.38
L15H | 3.17
L15A | 3.74
L15D | 4.09
L15V | 2.09
L15T | 3.73
L15N | 3.92
L15P | 4.02
L15C | 2.66
L15E | 4.41
L15G | 3.62
L15R | 4.1
L15W | 2.86
L15S | 3.92
L15K | 4.06
L15I | 3.52
C14F | 2.38
C14Q | 2.24
C14D | 2.16
C14L | 1.44
C14G | 2.27

Variant | protein stability index
C14P | 3.42
C14K | 1.59
C14T | 1.71
C14V | 1.75
C14S | 1.89
C14N | 1.96
C14Y | 1.16
C14R | 2.32
C14I | 2.16
C14A | 1.9
C14H | 2.81
C14W | 1.35
C14M | 1.58
E12N | 2.47
E12S | 1.92
E12R | 2.33
E12C | 1.9
E12D | 2.17
E12G | 2.27
E12F | 1.99
E12H | 2.02
E12M | 1.66
E12A | 2.34
E12W | 1.85

Variant | protein stability index
E12V | 1.26
E12I | 1.67
E12Y | 1.33
E12Q | 1.98
E12K | 1.75
E12T | 1.67
E12P | 1.76
M18Q | 2.75
M18E | 1.84
M18L | 2.18
M18D | 3.26
M18G | 3.33
M18N | 2.13
M18C | 1.81
M18P | 4.27
M18I | 1.4
M18A | 1.86
M18H | 2.41
M18R | 1.93
M18V | 1.51
M18T | 2.79
M18F | 2.5
M18S | 2.56
M18K | 2.19

Variant | protein stability index
K13Q | 1.47
K13E | 1.71
K13G | 1.8
K13V | 1.7
K13M | 1.34
K13N | 1.19
K13F | 1.91
K13Y | 3.37
K13H | 1.73
K13R | 2.05
K13S | 2.25
K13A | 2.1
K13P | 2.72
K13D | 1.76
K13T | 1.44
I17Y | 1.2
I17Q | 2
I17R | 2.15
I17S | 2.08
I17K | 2.08
I17F | 1.8
I17P | 3.53
I17H | 2.51
I17A | 1.6

Variant | protein stability index
I17C | 1.63
I17V | 2.38
I17N | 2.48
I17T | 2.12
I17G | 2.8
I17L | 1.85
I17M | 1.97
I17W | 1.47
I17E | 2.16
I17D | 2.47
Q9V | 1.25
Q9S | 1.7
Q9I | 1.96
Q9M | 2.03
Q9H | 1.85
Q9N | 2.32
Q9F | 2.88
Q9P | 1.95
Q9L | 1.46
Q9T | 1.86
Q9R | 2.08
Q9Y | 1.58
Q9K | 2.23
S16K | 2.17

Variant | protein stability index
S16H | 2.56
S16Q | 2.11
S16F | 2.09
S16T | 2.1
S16G | 2.34
S16M | 1.49
S16R | 2.62
S16L | 2.1
S16N | 1.37
S16I | 2.84
S16D | 2.08
S16V | 1.88
S16C | 1.91
S16W | 1.86
S16E | 1.96
S16Y | 2.83
S16P | 2.85
S16A | 2.32
D11H | 1.68
D11R | 1.77
D11S | 2.29
D11T | 1.87
D11K | 1.95
D11N | 2.45

Variant | protein stability index
D11P | 1.99
D11L | 3.63
D11A | 2.17
D11G | 2.15
F10A | 3.21
F10V | 2.45
F10E | 3.47
F10G | 2.81
F10N | 2.9
F10I | 2.93
F10Y | 1.97
F10P | 3.43
F10D | 3.15
F10S | 3.08
F10M | 2.45
F10R | 2.96
F10L | 2.07
F10H | 3.33
F10T | 3.01
F10W | 2.88
F10C | 2.99
F10Q | 3.51
F10K | 3.53
